Measurements reported in PMC9919357.

Target: Neuropeptide Y (TAMRA-NPY) (Sus scrofa), P01304

B1: Neuropeptide Y receptor type 2 (Y2R-A202C), P49146 (protein)
chain: MGPIGAEADENQTVEEMKVEQYGPQTTPRGELVPDPEPELIDSTKLIEVQVVLILAYASIILLGVIGNSLVIHVVIKFKSMRTVTNFFIANLAVADLLVNTLALPFTLTYTLMGEWKMGPVLCHLVPYAQGLAVQVSTITLTVIALDRHRAIVYHLESKISKRISFLIIGLAWGISALLASPLAIFREYSLIEIIPDFEIVCCTEKWPGEEKSIYGTVYSLSSLLILYVLPLGIISFSYTRIWSKLKNHVSPGAANDHYHQRRQKTTKMLVAVVVVFAVSWLPLHAFQLAVDIDSQVLDLKEYKLIFTVFHIIAMASTFANPLLYGWMNSNYRKAFLSAFRCEQRLDAIHSEVSVTFKAKKNLEVRKNSGPNDSFTEATNV
B1 showed a Kd of 32 nM.
